Results published in patent US20220089765A1, “CD31 COMPETITORS AND USES THEREOF” (ENCEFA, priority 2019, published 2022).
Positions count from the first letter of the chain named.

Legend:
[1] = target: CD38 (on cells of midbrain cultures from Wistar rat embryos) (UniProt Q64244); experiment: cell-based or functional assay
[2] = test system: dopaminergic neurons of the right substantia nigra pars compacta; experiment: 6-OHDA mouse model, number of DA (TH+) neurons; type: in vivo, mice
Experimental: We aimed at determining whether B08 or D06 anti-CD38 antibodies were neuroprotective in vivo against neurodegeneration induced by oxidative stress. Mouse were administered with 6-hydroxydopamine (6-OHDA) in the right striatum. Since 6-OHDA is an analogue of dopamine, it is transported in dopaminergic neurons through the dopamine transporter, resulting in a specific degeneration and loss of dopaminergic neurons of the right substantia nigra pars compacta. It has been extensively used as a test system for novel symptomatic agents and for assessment of neuroprotective and neurorepair strategies (Galindo et al., 2014. In Kostrzewa (Ed.), Handbook of neurotoxicity (1st Ed., pp. 639-651). New York: Springer-Verlag). Since 6-OHDA is injected unilaterally in the right striatum, left striatum remains unaffected and each mouse is its own control.
Two in vivo mouse models were used: the 6-OHDA mouse model and the MPTP mouse model. For the 6-OHDA mouse model, the intoxication protocol was based on the unilateral stereotaxic intrastriatal injection of 6-OHDA in the right striatum. Intracerebral or intravenous injections of treatments were made either the day before the surgical stereotaxic procedure, concomitantly with 6-OHDA during the surgical stereotaxic procedure, or two days after 6-OHDA injection. Animals were sacrificed 8 days after the surgical stereotaxic procedure.
For unilateral 6-OHDA mouse model, animals were anesthetized using Chloral hydrate (400 mg/kg, i.p.) and placed into a stereotactic frame adapted to mice. The injection was performed using a Hamilton syringe at the following coordinates: AP: […], ML: […], DV: […] (corresponding to the atlas of Franklin and Paxinos, 1997). A total volume of 2.5 μL containing or not 5 μg of 6-OHDA diluted in PBS in the presence or the absence of test treatments was injected. The needle was left in place for 10 min after the injection before retraction.
Mice were sacrificed by cervical dislocation, and beheaded to collect brain and blood samples. The brain was fixed in a paraformaldehyde solution (4%) during 1 day before being soaked in sucrose (30%) during 2 days and then froze at −80° C. for further analysis.
Each brain was sliced using a freezing microtome at −30° C. The thickness of each slice was 20 μm. The slicing was done around the substantia nigra (80 slices from slice 51 to 63 according to Allen Mouse Brain).
Slices were then washed out in PBS and incubated with anti-Tyrosine Hydroxylase to stain dopaminergic neurons (Abcam®) during 2 days, at 4° C., with agitation. Slices were incubated with corresponding secondary antibody in the presence of DAPI (Sigma Aldrich®) to stain cell's nuclei during 2 hours at room temperature, and mounted on gelatin-coated slides.
The slices were imaged using a Nikon TE2000 U equipped with a Hamamatsu ORCE-ER camera or with a Zeiss Axio Vert.A1 equipped with an axiocam 503 mono camera. Image analysis was done using Image J software or Zen (Zeiss®).

[3] = test system: midbrain dopaminergic (TH+) neurons; experiment: MPP+ intoxication model in midbrain cell cultures, survival of DA (TH+) neurons; type: cell-based, Wistar rat; conditions: for neuroprotective effect against MPP+-induced DA cell death, compared with reference clone HB7: 3 μM MPP+ between 5 and 7 DIV, each clone and HB7 0.5 μg/mL; for neuroprotective effect in the presence of the lysosomal exocytosis inhibitor vacuolin-1: 3 μM MPP+, test substance 1 μg/mL, vacuolin-1 10 μM
Experimental: For this purpose, spontaneously occurring DA cell death was prevented by a treatment combining depolarizing concentrations of K^+ (30 mM) and MK801 (5 μM), a glutamate receptor antagonist used to prevent unwanted excitotoxic insult. The cultures were then exposed to 3 μM MPP between 5 and 7 days in vitro (DIV) to achieve a loss of approximately 50% of DA neurons.
Animals were treated in accordance with the Guide for the Care and Use of Laboratory Animals (National Research Council, 1996), European Directive 86/609, and the guidelines of the local institutional animal care and use committee. Cultures were prepared from the ventral mesencephalon of gestational age 15.5 Wistar rat embryos (Janvier Breeding Center, Le Genest St Isle, France). Dissociated cells in suspension obtained by mechanical trituration of midbrain tissue pieces were seeded at a density of 1.2-1.5×10^5 cells/cm^2 onto tissue culture supports precoated with 1 mg/mL polyethylenimine diluted in borate buffer pH 8.3 as described (Michel et al., 1997. J Neurochem. 69(4):1499-507). The cultures were then maintained in N5 medium supplemented with 5 mM glucose, 5% horse serum, and 0.5% fetal calf serum, except for the first 3 DIV, when the concentration of fetal calf serum was 2.5% to favor initial maturation of the cultures (Guerreiro et al., 2008. Mol Pharmacol. 74(4):980-9). They were fed daily by replacing 70% of the medium. Routinely, mesencephalic cultures were established on Nunc 24-well culture plates (Thermofischer Scientific, Rochester, N.Y.). Note that these cultures contain tyrosine hydroxylase (TH)^+ neurons that were exclusively dopaminergic (Traver et al., 2006. Mol Pharmacol. 70(1):30-40). TH^+ neurons represented approximately 1-2% of the total number of neuronal cells present in these cultures. The evaluation of the survival of DA neurons was performed by counting cells immunopositive for TH as described (Toulorge et al., 2011. Faseb J. 25(8):2563-73).
Treatments with MPP were performed in cultures where the spontaneous death process was prevented by long-term exposure to depolarizing concentrations of K^+ (30 mM), in the presence of the glutamate receptor antagonist MK801 (5 μM) to prevent unwanted excitotoxic insults as described previously (Douhou et al., 2001. J Neurochem. 78(1): 163-74). Treatments with MPP and potential neuroprotective molecules were carried out between 5 and 7 DIV.
The cultures were fixed for 12 min using 4% formaldehyde in Dulbecco's phosphate-buffered saline (PBS), then washed twice with PBS before an incubation step at 4° C. for 24 h with the following antibodies. A monoclonal anti-TH antibody diluted 1/5000 (ImmunoStar, Inc., Hudson, Wis.) was used to assess the survival of DA neurons. Antibody was diluted in PBS containing 0.2% Triton X-100. Detection of the primary antibodies was performed with an Alexa Fluor-488 conjugate of an anti-mouse IgG antibody.

[4] = test system: human peripheral blood mononuclear cells (PBMCs); experiment: IL-10 release from human PBMCs in vitro (ELISA); type: cell-based; conditions: PBMCs from 3 healthy donors; 10 μg/ml; LPS 500 ng/mL and interferon-γ 1B 100 ng/mL; 24 hours
Experimental: 3 healthy volunteers (Donor 1: Donor 2: Donor 3) served as blood donors. Venous blood (5 mL) was collected into heparinized tubes and immediately processed. Briefly, blood was diluted 1/1 in pre-warmed RPMI 1640 medium. PBMCs were isolated using gradient centrifugation in Ficoll solution (Sigma; 300×g, 30 min). Isolated PBMCs were re-suspended in 1 volume of pre-warmed RPMI 1640 medium and centrifuged again (300×g, 30 min). PBMCs were re-suspended in RPMI 1640 medium supplemented with 10% human serum (Sigma-Aldrich) at a concentration of 10^7 cells per mL. Cells were seeded in 96 well microplate (100 μL per well). Test compounds (10 μg/ml), LPS (500 ng/mL) and interferon-γ 1B (100 ng/mL) were added to PBMCs culture immediately after plating. After 24 hours, cell culture supernatants were collected and frozen at −80° C. for further processing.
IL-10 levels in cell culture supernatants were assayed using an ELISA human IL-10 kit (Ozyme®) according to the indications for use specified by the manufacturer.

[5] = in humans; cited from earlier work

Sequence of UniProt Q64244 (Q64244 whole entry): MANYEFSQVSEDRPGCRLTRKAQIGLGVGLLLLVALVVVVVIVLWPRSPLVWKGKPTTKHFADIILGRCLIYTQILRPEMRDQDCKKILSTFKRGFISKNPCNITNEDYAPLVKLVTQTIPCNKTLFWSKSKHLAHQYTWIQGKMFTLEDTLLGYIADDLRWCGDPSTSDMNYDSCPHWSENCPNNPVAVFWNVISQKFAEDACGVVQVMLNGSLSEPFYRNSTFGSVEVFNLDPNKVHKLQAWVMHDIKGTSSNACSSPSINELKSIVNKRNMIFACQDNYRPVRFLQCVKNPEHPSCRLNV

## murine sCD31 (from UniProt Q08481 18-585) (ligand)
[1]
  EC50 of prevention of MPP+-induced DA cell loss (TH+ cell survival in midbrain cultures): 0.036 µg/mL

## Daratumumab: anti-CD38 antibody Daratumumab [reference compound]
[2]; 15 mg/kg iv one day before 6-OHDA injection
  neuroprotective effect in 6-OHDA model: failed to demonstrate neuroprotective activity

B1: Clone C05: anti-human CD38 antibody, HCVR SEQ ID NO: 34 and LCVR SEQ ID NO: 40 (antibody, V domains shown)
VH: EVQLVESGGSLVKPGGSLRLSCAASGFTFSNNYMNWVRQAPGKGLEWISSISGSSRYISYADFVKGRFTISRDNAKNSLYLQMNSLRAEDTAVYYCVRSSSSYYYSGNGMDVWGRGTLVTVSS
VL: QSVLTQPASVSGSPGQSITISCAGTSSDVGGSSYVSWYQQHPGKAPKLMIYYDSYRPSGVSNRFSGSKSGNTASLTISGLQAEDEADYYCSSNTYYSTRVFGGGTKL
modifications: HCVR C05; LCVR C05/C06
[3]
  neuroprotective effect against MPP+-induced DA cell death, compared with reference clone HB7: stronger neuroprotective effect
  neuroprotective effect in the presence of the lysosomal exocytosis inhibitor vacuolin-1: antagonized
[4]
  IL-10 release: statistically significantly increased

B2: Clone D07: anti-human CD38 antibody, HCVR SEQ ID NO: 37 and LCVR SEQ ID NO: 42 (antibody, V domains shown)
VH: B1 VH with N32S, Y33A, S50Y, Y57D, N108S
VL: B1 VL with S32N
modifications: HCVR D07; LCVR D07/D10
[3]
  neuroprotective effect in the presence of the lysosomal exocytosis inhibitor vacuolin-1: antagonized
[4]
  IL-10 release: statistically significantly increased

B3: Clone D06: anti-human CD38 antibody, HCVR SEQ ID NO: 36 and LCVR SEQ ID NO: 41 (antibody, V domains shown)
VH: EVQLVESGGSLVKPGGSLRLSCAASGFTFSNYDMNWVRQAPGKGLEWISYIYGSSRDISYADFVKGRFTISRDNAKNSLYLQMNSLRAEDTAVYYCVRSSGYYFGYGMDVWGRGTLVTVSS
VL: B1 VL with S33Y, Y52S, Y95A
modifications: HCVR D06; LCVR D06
[3]
  neuroprotective effect against MPP+-induced DA cell death, compared with reference clone HB7: stronger neuroprotective effect
  neuroprotective effect in the presence of the lysosomal exocytosis inhibitor vacuolin-1: antagonized
[2]; 0.1 mg/kg injected intracerebrally concomitantly with 6-OHDA
  protection of dopaminergic neurons of the right substantia nigra pars compacta: statistically significantly protected
[4]
  IL-10 release: statistically significantly increased

B4: Clone C06: anti-human CD38 antibody, HCVR SEQ ID NO: 35 and LCVR SEQ ID NO: 40 (antibody, V domains shown)
VH: B1 VH with N32S, Y33A, Y57N, S59Y, S101Y, Y103S, Y105G
VL: B1 VL
modifications: HCVR C06; LCVR C05/C06
[3]
  neuroprotective effect in the presence of the lysosomal exocytosis inhibitor vacuolin-1: antagonized

B5: Clone D10: anti-human CD38 antibody, HCVR SEQ ID NO: 38 and LCVR SEQ ID NO: 42 (antibody, V domains shown)
VH: B1 VH with N32S, Y33A, Y57D, S59Y
VL: B1 VL with S32N
modifications: HCVR D10; LCVR D07/D10
[3]
  neuroprotective effect against MPP+-induced DA cell death, compared with reference clone HB7: stronger neuroprotective effect

B6: ABBV-8E12: monoclonal antibody whose brain/plasma ratio in humans is cited (antibody, chains of the INN, looked up, V domains shown)
VH: EVKVVESGGGLVQPGGSMKLSCVVSGFTFSNYWVNWVRQAPGKGLEWVAQIRLKSDNYATHYEESVKGRFTISRDDSKSSVYLQMNNLRAEDSGIYYCTNWEDYWGQGTTVTVSS
VL: DIVLTQSPDSLAVSLGERATISCRASQSVSTSRYSYIHWYQQKPGQPPKLLIKYASNLESGVPSRFSGSGSGTDFTLNIHPLEPEDFATYYCHHSWEIPLTFGQGTKLEIK
[5]
  Brain/plasma ratio: 0.385%
